According to patent US20250083113A1, “Apparatus for Improving Hydration and/or Reducing Particle Size of a Product and a Method of Use Thereof” (St Andrews Pharmaceutical Technology Limited, priority 2021, published 2025):

Assay: Particle size of reconstituted freeze dried Factor XI by dynamic light scattering
Assay type: physicochemical
Conditions: sample exposed to a pulsed electromagnetic field compared to the control
Text: Experiment 1 was repeated but with Hemoleven (Factor XI) in place of the Factor VIII.

Factor XI: Hemoleven (Factor XI), blood clotting factor
% volume of larger particles: significant reduction
